Patent publication US20200018762

How the values were obtained:
[1] = target: purified H4 protein (Example 3), P62805
[2] = target: T1, biotinylated H4-derived unphosphorylated peptide TVTAMDVVYALKRQGRT
T1 chain: TVTAMDVVYALKRQGRT

[3] = target: purified histone H3 (Example 2), P68431

B1: purified constitutively active E346K-Ack1 (HA-tagged) (protein)
chain: MQPEEGTGWLLELLSEVQLQQYFLRLRDDLNVTRLSHFEYVKNEDLEKIGMGRPGQRRLWEAVKRRKALCKRKSWMSKVFSGKRLEAEFPPHHSQSTFRKTSPAPGGPAGEGPLQSLTCLIGEKDLRLLEKLGDGSFGVVRRGEWDAPSGKTVSVAVKCLKPDVLSQPEAMDDFIREVNAMHSLDHRNLIRLYGVVLTPPMKMVTELAPLGSLLDRLRKHQGHFLLGTLSRYAVQVAEGMGYLESKRFIHRDLAARNLLLATRDLVKIGDFGLMRALPQNDDHYVMQEHRKVPFAWCAPESLKTRTFSHASDTWMFGVTLWEMFTYGQEPWIGLNGSQILHKIDKKGERLPRPEDCPQDIYNVMVQCWAHKPEDRPTFVALRDFLLEAQPTDMRALQDFEEPDKLHIQMNDVITVIEGRAENYWWRGQNTRTLCVGPFPRNVVTSVAGLSAQDISQPLQNSFIHTGHGDSDPRHCWGFPDRIDELYLGNPMDPPDLLSVELSTSRPPQHLGGVKKPTYDPVSEDQDPLSSDFKRLGLRKPGLPRGLWLAKPSARVPGTKASRGSGAEVTLIDFGEEPVVPALRPCAPSLAQLAMDACSLLDETPPQSPTRALPRPLHPTPVVDWDARPLPPPPAYDDVAQDEDDFEICSINSTLVGAGVPAGPSQGQTNYAFVPEQARPPPPLEDNLFLPPQGGGKPPSSAQTAEIFQALQQECMRQLQAPAGSPAPSPSPGGDDKPQVPPRVPIPPRPTRPHVQLSPAPPGEEETSQWPGPASPPRVPPREPLSPQGSRTPSPLVPPGSSPLPPRLSSSPGKTMPTTQSFASDPKYATPQVIQAPGPRAGPCILPIVRDGKKVSSTHYYLLPERPSYLERYQRFLREAQSPEEPTPLPVPLLLPPPSTPAPAAPTATVRPMPQAALDPKANFSTNNSNPGARPPPPRATARLPQRGCPGDGPEAGRPADKIQMAMVHGVTTEECQAALQCHGWSVQRAAQYLKVEQLFGLGLRPRGECHKVLEMFDWNLEQAGCHLLGSWGPAHHKR
[1]
  in vitro kinase assay, immunoblot with pTyr51-H4 antibody: When purified E346K-Ack1 and H4 were incubated, H4 was Tyr51-phosphorylated, however, Ack1 inhibitor AIM-100 abrogated H4 pTyr51-phosphorylation (FIG. 26B)

B2: purified Ack1 (Examples 2 and 5) (protein)
chain: MQPEEGTGWLLELLSEVQLQQYFLRLRDDLNVTRLSHFEYVKNEDLEKIGMGRPGQRRLWEAVKRRKALCKRKSWMSKVFSGKRLEAEFPPHHSQSTFRKTSPAPGGPAGEGPLQSLTCLIGEKDLRLLEKLGDGSFGVVRRGEWDAPSGKTVSVAVKCLKPDVLSQPEAMDDFIREVNAMHSLDHRNLIRLYGVVLTPPMKMVTELAPLGSLLDRLRKHQGHFLLGTLSRYAVQVAEGMGYLESKRFIHRDLAARNLLLATRDLVKIGDFGLMRALPQNDDHYVMQEHRKVPFAWCAPESLKTRTFSHASDTWMFGVTLWEMFTYGQEPWIGLNGSQILHKIDKEGERLPRPEDCPQDIYNVMVQCWAHKPEDRPTFVALRDFLLEAQPTDMRALQDFEEPDKLHIQMNDVITVIEGRAENYWWRGQNTRTLCVGPFPRNVVTSVAGLSAQDISQPLQNSFIHTGHGDSDPRHCWGFPDRIDELYLGNPMDPPDLLSVELSTSRPPQHLGGVKKPTYDPVSEDQDPLSSDFKRLGLRKPGLPRGLWLAKPSARVPGTKASRGSGAEVTLIDFGEEPVVPALRPCAPSLAQLAMDACSLLDETPPQSPTRALPRPLHPTPVVDWDARPLPPPPAYDDVAQDEDDFEICSINSTLVGAGVPAGPSQGQTNYAFVPEQARPPPPLEDNLFLPPQGGGKPPSSAQTAEIFQALQQECMRQLQAPAGSPAPSPSPGGDDKPQVPPRVPIPPRPTRPHVQLSPAPPGEEETSQWPGPASPPRVPPREPLSPQGSRTPSPLVPPGSSPLPPRLSSSPGKTMPTTQSFASDPKYATPQVIQAPGPRAGPCILPIVRDGKKVSSTHYYLLPERPSYLERYQRFLREAQSPEEPTPLPVPLLLPPPSTPAPAAPTATVRPMPQAALDPKANFSTNNSNPGARPPPPRATARLPQRGCPGDGPEAGRPADKIQMAMVHGVTTEECQAALQCHGWSVQRAAQYLKVEQLFGLGLRPRGECHKVLEMFDWNLEQAGCHLLGSWGPAHHKR
[2]
  in vitro kinase assay on immobilized peptide, ELISA with pY88-H4 antibodies: Incubation of H4 peptide with WEE1 and Ack1 protein resulted in robust H4 Tyr88-phosphorylation
[3]
  in vitro kinase reaction, immunoblot with pTyr99-H3 antibody: Ack1 directly phosphorylates histone H3 at Tyr99 (FIG. 23)
